Numbered stars: 1 amine (or outer) side, 2 acyl side, 3 side chain; on linkers, the order of the positions; unused ones are H or OH. Bridge positions count the residues as written; N and C are the ends. Side chains are listed from the residue outwards. Ends that are not written are not given here. * marks the point of attachment. C20 diacid = O=C(O)CCCCCCCCCCCCCCCCCCC(=O)*; γGlu = O=C(O)[C@H](CCC(=O)[*:2])N[*:1]
B1: N^ε1-[(4S)-4-carboxy-4-[[(4S)-4-carboxy-4-(19-carboxynonadecanoylamino)butanoyl]amino]butanoyl]-[Glu14,Arg17,Pro21,Pro27,Pro34,Arg35]-h-amylin (peptide)
peptide: K([γGlu-γGlu-C20 diacid])CNTATCATQRLAEFLRHSSPNFGAIPSSTNVGPRTY-NH2
modifications: disulfide 2-7; N-terminus assumed
SMILES: CC[C@H](C)[C@H](NC(=O)[C@H](C)NC(=O)CNC(=O)[C@H](Cc1ccccc1)NC(=O)[C@H](CC(N)=O)NC(=O)[C@@H]1CCCN1C(=O)[C@H](CO)NC(=O)[C@H](CO)NC(=O)[C@H](Cc1c[nH]cn1)NC(=O)[C@H](CCCNC(=N)N)NC(=O)[C@H](CC(C)C)NC(=O)[C@H](Cc1ccccc1)NC(=O)[C@H](CCC(=O)O)NC(=O)[C@H](C)NC(=O)[C@H](CC(C)C)NC(=O)[C@H](CCCNC(=N)N)NC(=O)[C@H](CCC(N)=O)NC(=O)[C@@H](NC(=O)[C@H](C)NC(=O)[C@@H]1CSSC[C@H](NC(=O)[C@@H](N)CCCCNC(=O)CC[C@H](NC(=O)CC[C@H](NC(=O)CCCCCCCCCCCCCCCCCCC(=O)O)C(=O)O)C(=O)O)C(=O)N[C@@H](CC(N)=O)C(=O)N[C@@H]([C@@H](C)O)C(=O)N[C@@H](C)C(=O)N[C@@H]([C@@H](C)O)C(=O)N1)[C@@H](C)O)C(=O)N1CCC[C@H]1C(=O)N[C@@H](CO)C(=O)N[C@@H](CO)C(=O)N[C@H](C(=O)N[C@@H](CC(N)=O)C(=O)N[C@H](C(=O)NCC(=O)N1CCC[C@H]1C(=O)N[C@@H](CCCNC(=N)N)C(=O)N[C@H](C(=O)N[C@@H](Cc1ccc(O)cc1)C(N)=O)[C@@H](C)O)C(C)C)[C@@H](C)O
notes: also called compound 110
B2: N^ε1-[(4S)-4-carboxy-4-[[(4S)-4-carboxy-4-(19-carboxynonadecanoylamino)butanoyl]amino]butanoyl]-[Glu14,Arg17,Pro21,Pro27,Pro34,His35]-h-amylin (peptide)
peptide: K([γGlu-γGlu-C20 diacid])CNTATCATQRLAEFLRHSSPNFGAIPSSTNVGPHTY-NH2
modifications: disulfide 2-7 (inferred)
B3: N^ε1-[(4S)-4-carboxy-4-[[(4S)-4-carboxy-4-(19-carboxynonadecanoylamino)butanoyl]amino]butanoyl]-[His14,Arg17,Pro21,Pro27]-h-amylin (peptide)
peptide: K([γGlu-γGlu-C20 diacid])CNTATCATQRLAHFLRHSSPNFGAIPSSTNVGSNTY-NH2
modifications: disulfide 2-7; N-terminus assumed
SMILES: CC[C@H](C)[C@H](NC(=O)[C@H](C)NC(=O)CNC(=O)[C@H](Cc1ccccc1)NC(=O)[C@H](CC(N)=O)NC(=O)[C@@H]1CCCN1C(=O)[C@H](CO)NC(=O)[C@H](CO)NC(=O)[C@H](Cc1c[nH]cn1)NC(=O)[C@H](CCCNC(=N)N)NC(=O)[C@H](CC(C)C)NC(=O)[C@H](Cc1ccccc1)NC(=O)[C@H](Cc1c[nH]cn1)NC(=O)[C@H](C)NC(=O)[C@H](CC(C)C)NC(=O)[C@H](CCCNC(=N)N)NC(=O)[C@H](CCC(N)=O)NC(=O)[C@@H](NC(=O)[C@H](C)NC(=O)[C@@H]1CSSC[C@H](NC(=O)[C@@H](N)CCCCNC(=O)CC[C@H](NC(=O)CC[C@H](NC(=O)CCCCCCCCCCCCCCCCCCC(=O)O)C(=O)O)C(=O)O)C(=O)N[C@@H](CC(N)=O)C(=O)N[C@@H]([C@@H](C)O)C(=O)N[C@@H](C)C(=O)N[C@@H]([C@@H](C)O)C(=O)N1)[C@@H](C)O)C(=O)N1CCC[C@H]1C(=O)N[C@@H](CO)C(=O)N[C@@H](CO)C(=O)N[C@H](C(=O)N[C@@H](CC(N)=O)C(=O)N[C@H](C(=O)NCC(=O)N[C@@H](CO)C(=O)N[C@@H](CC(N)=O)C(=O)N[C@H](C(=O)N[C@@H](Cc1ccc(O)cc1)C(N)=O)[C@@H](C)O)C(C)C)[C@@H](C)O
notes: also called compound 92

Columns and labels:
[1] = molecular target: T1, human amylin receptor (amylin 3(a) receptor: human calcitonin receptor coexpressed with RAMP-3) (human, UniProt P30988 25-474; O60896 24-148); assay: cell-based or functional assay
T1 sequence (looked up) 1: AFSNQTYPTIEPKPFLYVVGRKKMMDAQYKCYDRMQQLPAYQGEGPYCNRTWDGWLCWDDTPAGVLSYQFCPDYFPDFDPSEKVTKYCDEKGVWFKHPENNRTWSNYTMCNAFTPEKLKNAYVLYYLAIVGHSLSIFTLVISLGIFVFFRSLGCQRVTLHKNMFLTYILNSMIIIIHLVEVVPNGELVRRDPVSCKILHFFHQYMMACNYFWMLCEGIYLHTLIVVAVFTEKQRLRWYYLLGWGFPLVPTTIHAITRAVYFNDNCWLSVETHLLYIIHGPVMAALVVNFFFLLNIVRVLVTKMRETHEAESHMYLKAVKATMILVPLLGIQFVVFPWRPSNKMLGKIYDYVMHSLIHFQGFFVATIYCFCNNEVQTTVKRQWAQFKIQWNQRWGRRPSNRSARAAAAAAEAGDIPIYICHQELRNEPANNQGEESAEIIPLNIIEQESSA
T1 sequence (looked up) 2: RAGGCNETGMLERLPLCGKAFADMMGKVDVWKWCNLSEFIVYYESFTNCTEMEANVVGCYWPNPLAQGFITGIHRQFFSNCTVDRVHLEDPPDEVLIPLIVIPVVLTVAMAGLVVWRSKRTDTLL

[2] = molecular target: T2, human calcitonin receptor (human, UniProt P30988 25-474); assay: cell-based or functional assay
T2 sequence (looked up): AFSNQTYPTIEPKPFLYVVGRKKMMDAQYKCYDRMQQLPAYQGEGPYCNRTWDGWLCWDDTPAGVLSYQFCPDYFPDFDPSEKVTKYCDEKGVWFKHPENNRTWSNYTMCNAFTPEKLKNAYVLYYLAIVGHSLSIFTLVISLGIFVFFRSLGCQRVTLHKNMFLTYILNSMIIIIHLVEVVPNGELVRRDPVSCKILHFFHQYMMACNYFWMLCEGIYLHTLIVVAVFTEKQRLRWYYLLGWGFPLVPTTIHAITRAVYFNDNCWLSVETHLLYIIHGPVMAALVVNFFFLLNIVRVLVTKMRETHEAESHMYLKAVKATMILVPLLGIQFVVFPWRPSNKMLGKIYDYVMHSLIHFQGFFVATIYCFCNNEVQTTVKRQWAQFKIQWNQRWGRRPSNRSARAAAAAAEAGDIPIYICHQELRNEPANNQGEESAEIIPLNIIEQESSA

Binder | hAmylin-R funct. EC50 (pM) [1] [pM] | Ratio hCT/hAmylin funct. [2] | hCTR funct. EC50 (pM) [2] [pM]
B1 | 278 | 29.3 | 8160
B2 | 172 | 16.4 | 2830
B3 | 85 | 28 | 2380
